From US20250092148A1 (Kyowa Kirin, published 2025)
Numbering of substitutions follows the chain as printed.

T1: human CD116 soluble antigen (His-tag form) (human, UniProt P15509 23-320)
T1 construct: extracellular domain; expressed in Expi293F cells; also called hCD116-His
T1 sequence (looked up): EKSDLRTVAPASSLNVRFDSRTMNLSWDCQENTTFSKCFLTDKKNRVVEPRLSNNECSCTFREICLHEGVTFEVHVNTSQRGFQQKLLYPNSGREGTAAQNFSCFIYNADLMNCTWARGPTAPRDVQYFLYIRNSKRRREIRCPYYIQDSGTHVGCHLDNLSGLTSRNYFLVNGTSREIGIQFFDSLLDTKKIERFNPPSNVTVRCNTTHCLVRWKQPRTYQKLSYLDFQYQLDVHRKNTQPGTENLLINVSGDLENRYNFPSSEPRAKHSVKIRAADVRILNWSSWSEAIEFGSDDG

B1: 116-413 (Fab, V domains shown)
VH: QVQLVQSGAEVKKPGASVKVSCKVSGYTLTDLSMHWVRQAPGKGLEWMGGFDPEDGETIYAQKFQGRVTMTEDTSTDTAYMELSSLRSEDTAVYYCATGLFYYQYGMDVWGQGTTVTVSS
VL: not shown
notes: phage library clone, E. coli culture supernatant
B2: 116-412 (Fab, V domains shown)
VH: B1 VH with Q1E, F51L, T115L
VL: not shown
notes: as for B1
B3: 116-466 (Fab, V domains shown)
VH: B1 VH with T58R, G66D, T115L
VL: not shown
notes: as for B1
B4: 116-435 (Fab, V domains shown)
VH: B1 VH with Q1E, D31E, T58R
VL: not shown
notes: as for B1
B5: 116-463 (Fab, V domains shown)
VH: B1 VH with L32F, S33A, M34I, T58R
VL: not shown
notes: as for B1
B6: 116-433 (Fab, V domains shown)
VH: B1 VH with L32F, S33A, M34I, T58R, A97T, T115L
VL: not shown
notes: as for B1
B7: 116-464 (Fab, V domains shown)
VH: B1 VH with T58R, V93M
VL: not shown
notes: as for B1
B8: 116-421 (Fab, V domains shown)
VH: B1 VH with V5Q, T58R, S75A, Y95H
VL: not shown
notes: as for B1
B9: 116-398 (Fab, V domains shown)
VH: B1 VH with Q1E, T30A, D31E, T58R, T76K, A97T, T115M
VL: not shown
notes: phage library clone, tested as E. coli culture supernatant (FLAG-His tag)
B10: 116-439 (Fab, V domains shown)
VH: B1 VH with V5Q, T58R, T115L
VL: not shown
notes: as for B1
B11: 116-465 (Fab, V domains shown)
VH: B1 VH with T28P, K43E, F51S, M70V, S85N
VL: not shown
notes: as for B1

Molecular target: T1, human CD116 soluble antigen (His-tag …)
Assay: screening by ELISA on biotinylated antigen and by flow cytometry, E. coli supernatant
Description: Using the obtained monoclonal Escherichia coli culture supernatant, screening for clones that bind to both human CD116 and monkey CD116 was performed by ELISA and FCM described below.
In screening by ELISA, a MAXISORP plate (manufactured by NUNC Corporation) was immobilized with streptavidin (manufactured by Thermo Fisher Scientific) and blocked using 1% BSA-PBS (manufactured by Nacalai Tesque, Inc.), and then the biotinylated human CD116 soluble antigen (His-tag form) or the biotinylated monkey CD116 soluble antigen (His-tag form) binds thereto. Each Escherichia coli culture supernatant was added to each well of the plate and allowed to react for 60 minutes at room temperature, and then each well was washed 3 times with PBS-T.
Next, HRP-labeled Goat poly, anti-human IgG F(ab′)₂ (manufactured by Abcam) was diluted 1000 times with 1% BSA-PBS, and 50 μL thereof was added to each well, followed by incubating at room temperature for 30 minutes. After washing the microplate 3 times with PBS-T, 50 μL of TMB color developing substrate solution (manufactured by DAKO) was added to each well, followed by incubating at room temperature for 10 minutes. A 2N HCl solution (50 μL/well) was added to each well to stop the color developing reaction, and an absorbance at a wavelength of 450 nm (reference wavelength: 570 nm) was measured using a plate reader (EnSpire: manufactured by PerkinElmer).

Binder	binding result
B1	binds
B2	binds
B3	binds
B4	binds
B5	binds
B6	binds
B7	binds
B8	binds
B9	binds
B10	binds
B11	binds
